Tested on: adjuvant-arthritis Lewis rat
Experiment: Adjuvant arthritis in Lewis rats, femur bone mineral density: OCIF complex with loxoprofen sodium
Format: in vivo
Details: distal ends of femurs, day 21 after adjuvant; loxoprofen sodium 5 mg/kg p.o. and/or Preparation 11 0.1 mg/kg i.p. daily, days 14 to 20
Description: This example was carried out according to the method described in C. V. Winder, et al. Arthritis Rheum 12 472 (1957). Heat-killed cells of Mycobacterium butyricum were pulverized in an agate mortar and then suspended in liquid paraffin sterilized with hot air to give a suspension having a cellular concentration of 2 mg/ml. This suspension was then subjected to ultrasonication so as to produce an adjuvant. 50 μl of the obtained adjuvant were injected intradermally at each of two sites in the base of the tail of a Lewis rat (eight-weeks old, female) (200 μg in total per rat), to induce arthritis in said rat. […] As a control, instead of the loxoprofen sodium, OCIF complex Preparation 11 or a combination thereof, only the solvents used for dissolving them were administered to the rat. […] The bone mineral densities of the distal ends of the right-and-left femurs were measured using an X-ray measurement apparatus (Dual energy X-ray absorptiometry DCS-600R, manufactured by Aroka Co., Ltd.), and the average of each of the measured values was calculated, and was defined as the bone mineral density of the individual. In order to evaluate the differences between the averages of the bone mineral densities of each group, significant difference was tested by Student's t-test, and the P value was calculated.

Compound | Bone mineral density (average ± standard error) [mg/cm^2]
CC(C(=O)O)c1ccc(CC2CCCC2=O)cc1 (stereo not shown) [Loxoprofen sodium, loxoprofen sodium, reference compound] | 106.5 ± 0.8
Prep. 11: OCIF/DS5 complex: DS5 100 mg/ml, OCIF 5 mg/ml, 4 °C, pH 10.5, 18 h | 109.6 ± 2.1

Tested on: not listed separately
Experiment: Measurement of isoelectric point by isoelectric electrophoresis gel
Format: physicochemical
Details: IEF PAGE mini gel, pH range 3 to 10, compared with pI markers
Source text: The isoelectric point can be measured using any conventional isoelectric electrophoresis technique well-known to the skilled person in the art. OCIF is a basic protein and the isoelectric point thereof is about pI 9. […] Therefore, it is possible to readily distinguish complexed and uncomplexed OCIF using this technique.
The purified recombinant dimeric human OCIF, prepared as described in Preparation Example 1(a) above and the complex of OCIF and dextran sulfate prepared in Preparation Example 1(b) above which is designated Preparation Number 22 in Table 1 were applied separately to an isoelectric electrophoresis gel IEF PAGE mini (pH range of 3 to 10, manufactured by Iwaki Glass), using an IEF pH 3-7 buffer kit (Technical Frontier Co.) and a voltage was applied to the gel according to the following regime: 100 V for 1 hour, followed by 200 V for 1 hour and finally 500 V for 30 minutes. After completion of the electrophoresis, the resultant gel obtained in each case was stained with Coomassie Blue.
From the electrophoresis gels obtained above, it was determined that the isoelectric point of the dimeric human OCIF was about pI 9, and the isoelectric point of the complex of OCIF and dextran sulfate designated Preparation Number 22 was about pI 6.5 by comparing the band position of OCIF and that of the OCIF complex with pI markers.

Compound | isoelectric point (pI)
OCIF: recombinant dimeric human osteoclastogenesis inhibitory factor, molecular weight about 120000, non-complexed | ~9
Prep. 22: OCIF/DS5 complex: DS5 150 mg/ml, OCIF 5 mg/ml, 7 °C, pH 10.5, 168 h | ~6.5

Tested on: adjuvant-arthritis Lewis rat
Experiment: Adjuvant arthritis in Lewis rats, femur bone mineral density: OCIF complex with celecoxib
Format: in vivo
Details: distal ends of femurs, day 21 after adjuvant; celecoxib 1 mg/kg p.o. and/or Preparation 22 3.5 mg/kg i.p. daily, days 14 to 20
Description: Arthritis was induced in test groups of Lewis rats (eight-weeks old, female) according to the same procedure described in Example 2 above.
From the 14th to 20th days after injection of the adjuvant, celecoxib [Thomas D, P., et al., J. Med. Chem., 40, 1347-1365 (1997); WO-A-95/15316] suspended in a 0.5% tragacanth aqueous solution (manufactured by Nihon Funmatsu Yakuhin Co., Ltd.) at a concentration of 0.2 mg/ml was orally administered to each rat of one test group at a rate of 5 ml/kg each day so that the dose of […] administered was 1 mg/kg body weight. […]
Each rat was dissected on the 21 st day after injection of the adjuvant, and the right-and-left femurs were extracted. The bone mineral densities of the distal ends of the right-and-left femurs were measured using an X-ray measurement apparatus (Dual energy X-ray absorptiometry DCS-600R, manufactured by Aroka Co., Ltd.), and the average of each of the measured values was calculated, and was defined as the bone mineral density of the individual.
In order to evaluate the differences between the averages of the bone mineral densities of each group, significant difference was tested by Student's t-test, and the P value was calculated.

Compound | Bone mineral density (average ± standard error) [mg/cm^2]
Cc1ccc(-c2cc(C(F)(F)F)nn2-c2ccc(S(N)(=O)=O)cc2)cc1 [Celecoxib, celecoxib, reference compound] | 103.0 ± 1.8
Prep. 22: OCIF/DS5 complex: DS5 150 mg/ml, OCIF 5 mg/ml, 7 °C, pH 10.5, 168 h | 104.2 ± 2.1

Tested on: not listed separately
Experiment: Degree of adsorption to a heparin cross-linked column
Format: physicochemical
Details: applied and washed with 0.7 M NaCl, eluted with 2 M NaCl in 10 mM sodium phosphate buffer; OCIF by ELISA
Source text: A preferred feature of the complexes used in the present invention that can be used to characterise them is their affinity to heparin. Heparin is a polysaccharide comprising D-glucosamine, D-glucuronic acid and D-iduronic acid which is partially or fully derivatised with sulfate and acetyl groups. A preferred feature of the complexes employed in the present invention is that the strength of adsorption of said complex of OCIF or an anlogue or variant thereof to heparin is lower than the strength of adsorption of the free, non-complexed OCIF or analogue or variant thereof. The degree of adsorption can be determined using a column packed with highly cross-linked. linked agarose beads on which has been immobilized heparin (e.g. heparin obtained from bovine intestinal mucosa). Suitable columns of this type include HiTrap heparin HP column, HiPrep 16/10 Heparin and Heparin Sepharose (all obtainable from Amersham Pharmacia). The strength of adsorption (the affinity) of the complex can be determined according to any suitable method that is well known to the person skilled in the art for determining the affinity of proteins to polysaccharides. […] Thus, typically the degree of adsorption of the complex to heparin can be determined as follows:
(a) A column packed with a support such as cross-linked agarose beads on which has been immobilized heparin is equilibrated with a buffer having a relatively low ionic strength (e.g. sodium phosphate buffer containing 0.1-0.8 M sodium chloride).
(b) The complex of the present invention that is being tested is dissolved in the same low ionic strength buffer as used in (a) and applied to the column and a first eluate is then collected (fraction A).
(c) The column is then washed further with the same low ionic strength buffer as used in step (a) and a second eluate is collected (fraction B).
(d) The column is then washed with a buffer having a relatively high ionic strength (e.g. sodium phosphate buffer containing 1.0-2.0 M sodium chloride) and a third eluate is then collected (fraction C).
(e) The amount of the complex present in each of fractions A, B and C [designated (α), (β) and (γ) respectively] is then determined (e.g. by an immunoassay).
(f) The degree of adsorption of the complex to heparin is then determined according to the following formula: [formula]
The degree of adsorption of the complexes of the present invention as measured by the above formula will vary to some extent depending upon the type of heparin column and the conditions under which the determination is carried out.
A heparin cross-linked column (HiTrap Heparin HP column, Lot. 289212, Amersham Bioscience) was pre-equilibrated with 5 ml of 10 mM sodium phosphate buffer containing 0.7 M sodium chloride. A preparation from Table 1 of Preparation Example 1 was taken and diluted to a final protein concentration of 0.1 mg/ml with 10 mM sodium phosphate buffer containing 0.7 M sodium chloride. 1 ml of the diluted solution thus obtained was applied to said column and 1 ml of a first eluate was collected (fraction A). Next, 5 ml of 10 mM sodium phosphate buffer containing 0.7 M sodium chloride were applied to said column and 5 ml of a second eluate were collected (fraction B). Finally, 4 ml of 10 mM sodium phosphate buffer containing 2M sodium chloride were applied to said column and 4 ml of an eluate were collected (fraction C).
100 μL of 0.1 M sodium hydrogen carbonate (pH 9.6), in which was dissolved an anti-human OCIF monoclonal antibody OI-19 (FERM BP-6420) at a concentration of 10 μg per ml, were transferred to each well of a 96-well microtitre plate (Maxisorp: NUNC Co Ltd.). The plate was sealed and then incubated at 4° C. overnight. At the end of this incubation time, the solution in each well was removed by decantation, 300 μL of 50% Block Ace (purchased from Dainippon Pharmaceutical Co., Ltd.) were added to each well, and then the plate was incubated at room temperature for 2 hours. […]

Compound | The degree of adsorption of the OCIF/DS complex to a heparin cross-linked column
Prep. 8: OCIF/DS5 complex: DS5 130 mg/ml, OCIF 6.5 mg/ml, 4 °C, pH 10.5, 288 h | 0.153
Prep. 7: OCIF/DS5 complex: DS5 130 mg/ml, OCIF 6.5 mg/ml, 4 °C, pH 10.5, 144 h | 0.183
Prep. 24: OCIF/DS5 complex: DS5 150 mg/ml, OCIF 5 mg/ml, 25 °C, pH 10, 24 h | 0.072
Prep. 6: OCIF/DS5 complex: DS5 130 mg/ml, OCIF 6.5 mg/ml, 4 °C, pH 10.5, 48 h | 0.451
Prep. 25: OCIF/DS5 complex: DS5 130 mg/ml, OCIF 6.5 mg/ml, 4 °C, pH 10.5, 24 h | 0.611
Prep. 27: OCIF/DS5 complex: DS5 150 mg/ml, OCIF 5 mg/ml, 4 °C, pH 10.5, 144 h | 0.141
Prep. 22: OCIF/DS5 complex: DS5 150 mg/ml, OCIF 5 mg/ml, 7 °C, pH 10.5, 168 h | 0.264

Reference: US20030216297A1, “Pharmaceutical composition” (SANKYO COMPANY, LIMITED, priority 2002, published 2003)
